The values that follow come from patent US20090280109A1, “ILT3 and ILT4-related compositions and methods” (The Trustees of Columbia University in the City of New York, priority 2001, published 2009).

In the test the test system is ILT3 and ILT4 on monocytes and DCs. Put plainly: Flow cytometry of ILT3, ILT4 and costimulatory molecules on APCs. As to conditions: for ILT3 and ILT4 expression on APC (monocytes and dendritic cells): treatment of APC. Format: cell-based, human. On the procedure:
To study the expression of ILT3 or ILT4 and costimulatory molecules on normal APCs from peripheral blood or spleen cell suspensions, APCs were incubated with TS cells for 18 h with or without CD40L-transfected D1.1 cells (see Results). The cells were then collected, washed and saturating amounts of mAbs to ILT3 or ILT4 were added (21, 22). After 30 min on ice, cells were washed twice, stained with PE-goat-anti-mouse or PE-goat-anti-rat (Caltech, Burlingame, Calif.), then washed twice again, incubated with mouse or rat IgG (as a blocking antibody, Vector Labs, Burlingame, Calif.), washed twice, then stained with mAbs to FITC-CD14 or cychrome-CD11c, FITC-HLA-DR and PerCP-CD3 (Pharmingen, San Diego, Calif.). In other samples, mAbs to PE-CD80 and PE-CD86 were added along with markers for monocytes and DCs. CD3^+ T cells were gated-out and CD14^+ monocytes or CD14^− CD11c^+HLA-DR^+ immature DCs were analyzed with CellQuest software on a G4 Apple Macintosh Computer. Annexin V and PI staining of target APCs was done as described (12). Five parameter analyses (forward scatter, side scatter and three fluorescence channels) were used for list mode data analysis. The FL3 channel was used as a fluorescence trigger and FL1 and FL2 as analysis parameters.
Background: Flow cytometry measures light scatter and fluorescence of single cells or particles in a stream.

“Also recorded” adds a separate entry of the source.

TNF-alpha: the “ILT3 and ILT4 expression on APC (monocytes and dendritic cells)” value is “increase the expression”.

B1: IL-10: Interleukin 10, immunoregulatory cytokine (protein, UniProt P22301 19-178, looked up)
Interleukin-10: SPGQGTQSENSCTHFPGNLPNMLRDLRDAFSRVKTFFQMKDQLDNLLLKESLLEDFKGYLGCQALSEMIQFYLEEVMPQAENQDPDIKAHVNSLGENLKTLRLRLRRCHRFLPCENKSKAVEQVKNAFNKLQEKGIYKAMSEFDIFINYIEAYMTMKIRN
In the case of B1, the “ILT3 and ILT4 expression on APC (monocytes and dendritic cells)” value is reported as “induces upregulation; also recorded: increase the expression”. Moreover, where the note is “within 20 h of incubation”, the “CD86 expression on human monocytes and DCs” value is given as “down-regulated”; the “expression of ILT3 and ILT4 on the membranes of human monocytes and DCs” value is reported as “up-regulated”.
